According to patent US20190252037A1:
Where two headings read alike, the source gives them in different places.

Tests used:
[1] = target: heterotrimeric polymerase from influenza A/little yellow-shouldered bat/Guatemala/060/2010 (H17N10), wild type (Influenza A/little yellow-shouldered bat/Guatemala/060/2010 (H17N10))
[2] = target: 4-repeats (28 amino acids) Ser-5 phosphorylated CTD peptide, fluorescently labelled with FAM at the N-terminal end
[3] = target: 2-repeats (14 amino acids) Ser-5 phosphorylated CTD peptide, fluorescently labelled with FAM at the N-terminal end
[4] = target: 4-repeats non-phosphorylated CTD peptide, fluorescently labelled with FAM at the N-terminal end
[5] = target: 4-repeats (28 amino acids) Ser-5 phosphorylated CTD peptide, fluorescently labelled with FAM at the N-terminal end; remark: listed apart in the source
[6] = target: 4-repeats (28 amino acids) Ser-5 phosphorylated CTD peptide, fluorescently labelled with FAM at the N-terminal end; remark: listed apart in the source
[7] = target: 2-repeats (14 amino acids) Ser-5 phosphorylated CTD peptide, fluorescently labelled with FAM at the N-terminal end; remark: listed apart in the source

## Ser-5-phosphorylated 28-mer CTD peptide (four heptad repeats), not labelled
[1]
  apparent KD (KD'): 2700 nM

## heterotrimeric polymerase from human influenza B/Memphis/13/03, wild type (enzyme)
[2]
  Kd: 2900 nM
[3]
  Kd: 4200 nM

## heterotrimeric polymerase from influenza A/little yellow-shouldered bat/Guatemala/060/2010 (H17N10), wild type (enzyme)
[4]
  Kd: > 10000 nM
[5]
  Kd: 800 nM
[6]
  Kd: 900 nM
[7]
  Kd: 6100 nM
